Reference: patent publication US20260049134A1

Molecular target: SELL (L-Selectin)
Experiment: ELISA on coated SELL-Fc-His, 150 ng IgG1; None 0.096

Sequence of SELL (L-Selectin) (chain, as listed by the source limits assumed): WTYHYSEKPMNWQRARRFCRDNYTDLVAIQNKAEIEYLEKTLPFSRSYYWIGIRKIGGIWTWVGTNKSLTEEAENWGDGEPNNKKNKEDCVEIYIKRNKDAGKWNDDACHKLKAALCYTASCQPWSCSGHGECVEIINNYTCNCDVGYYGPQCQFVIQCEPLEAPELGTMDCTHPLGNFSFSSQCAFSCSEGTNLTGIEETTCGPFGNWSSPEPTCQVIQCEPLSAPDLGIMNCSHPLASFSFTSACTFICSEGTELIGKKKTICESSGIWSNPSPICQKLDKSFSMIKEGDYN

ELISA Absorbance (405 nm-570 nm): 0.188
B1: HW-28 chimeric rabbit-human IgG1 LA/LA/PG (antibody, V domains shown)
VH: QKQLVESGGRLVTPGTPLTLTCTASGFSLSSNAMSWVRQAPGEGLQWIGTISSGGSTYYASWAKGRFTISKTSTTVTLKMTSLTTEDTATYFCARGADLHRLWGPGTLVTVSS
VL: SFVLTQPASVQVNLGQTVSLTCTGKPLSRSFASWYQQKPGQAPVLVIYRDTSRPSGVPDRFSGSSSGNTATLTISGAQAGDEADYYCATSDGSGSSYQYVFGGGTQLTVTG
